In publication doi:10.1101/2022.11.10.516004 (bioRxiv, 2022):

Molecular target: the molecule itself
Experiment: NMR titration

B1: TDP-43 C-terminal domain (CTD), wild type (domain or fragment, human, UniProt Q13148 267-414, looked up)
chain: NRQLERSGRFGGNPGGFGNQGGFGNSRGGGAGLGNNQGSNMGGGMNFGAFSINPAMMAAAQAALQSSWGMMGMLASQQNQSGPSGNNQNQGNMQREPNQAFGSGNNSYSGSNSGAAIGWGSASNAGSGSGFNGGFGSSMDSKSSGWGM
- binding result: binds
